Data from paper PMC7117682.

Key:
[1] = molecular target: CD47 naturally expressed on CD47(+) Jurkat T lymphoma cells (human (endogenous in Jurkat)) (UniProt Q08722); assay: laser scanning cytometry (LSC) on cells; competition on live CD47(+) Jurkat cells, 384-well, homogeneous: a fixed concentration of SIRPα-biotin (20 nM) co-incubated with a titration of the competitor or inhibitor, neutravidin-Alexa488
[2] = molecular target: CD47 naturally expressed on CD47(+) Jurkat T lymphoma cells (human (endogenous in Jurkat)) (UniProt Q08722); assay: laser scanning cytometry (LSC) on cells; titration of SIRPα-biotin on live DRAQ5-labelled Jurkat cells, 384-well, homogeneous (no wash), HEPES buffer (10 mM HEPES pH 7.5, 0.15 M NaCl), room temperature, neutravidin-Alexa488 0.5 μg/mL; SIRPα presented as a multimer on tetrameric neutravidin (avidity)

Chain of CD47 naturally expressed on CD47(+) Jurkat T lymphoma cells (human (endogenous in Jurkat)) (Q08722 19-323): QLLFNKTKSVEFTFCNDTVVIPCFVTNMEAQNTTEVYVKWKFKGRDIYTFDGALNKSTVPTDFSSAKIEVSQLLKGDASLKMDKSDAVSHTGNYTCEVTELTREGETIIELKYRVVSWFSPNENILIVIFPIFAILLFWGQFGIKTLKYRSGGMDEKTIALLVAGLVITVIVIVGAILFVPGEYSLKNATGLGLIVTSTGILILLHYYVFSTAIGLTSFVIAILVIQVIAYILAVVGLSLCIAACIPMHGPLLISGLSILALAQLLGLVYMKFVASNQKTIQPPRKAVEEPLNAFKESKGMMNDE

| IC50 [1] [nM] | EC50 [2] [nM] | fold more potent than SIRPαV1 [2] [fold] | Substance |
| --- | --- | --- | --- |
| 3000 |  |  | SIRPα variant 2, non-biotin conjugated (cold) (domain or fragment) |
|  | 16 | 2 | SIRPα variant 2, biotin-conjugated (SIRPα-Avi-biotin d1 construct) (domain or fragment) |
